Measurements reported in US20240384250A1, “FIBROBLAST GROWTH FACTOR 23 MODULATING COMPOUNDS” (THE UAB RESEARCH FOUNDATION, priority 2021, published 2024).
One block for each molecule: values may come before it.

Legend:
[1] = system: isolated adult ventricular cardiac myocytes; settings: previous studies; cited from earlier work
[2] = system: mouse model of CKD; settings: administration of sKL; cited from earlier work
[3] = biological target: T1, FGFR4 (Homo sapiens, UniProt P22455); experiment: Surface plasmon resonance, FGFR4 ectodomain immobilized on chip; format: binding; settings: SPR
T1 construct: Fc-FGFR4 protein (human ectodomain) was immobilized; purchased R&D Systems 685FR050
T1 sequence (P22455 22-369 limits assumed): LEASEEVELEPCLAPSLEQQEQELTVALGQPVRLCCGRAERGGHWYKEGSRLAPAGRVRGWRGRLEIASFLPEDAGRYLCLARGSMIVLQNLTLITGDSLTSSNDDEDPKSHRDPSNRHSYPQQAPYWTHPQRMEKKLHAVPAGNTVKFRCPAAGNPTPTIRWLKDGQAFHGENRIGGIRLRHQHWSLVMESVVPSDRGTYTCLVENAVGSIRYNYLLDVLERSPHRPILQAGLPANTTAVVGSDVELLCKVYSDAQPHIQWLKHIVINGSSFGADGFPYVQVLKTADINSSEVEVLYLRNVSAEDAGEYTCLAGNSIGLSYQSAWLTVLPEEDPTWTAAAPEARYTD
Experimental: For the direct quantitative analysis of label-free molecular interactions in real time, surface plasmon resonance studies were conducted using BIAcore T200 and T200 evaluation software (28975001, Cytiva). Sensor SA (BR100398) and CMS chips (BR100399) were from Cytiva. For the preparation of heparin chips, heparin (2 mg) and amine-PEG3-Biotin (2 mg, 21347, Pierce) were dissolved in 200 μl of H2O and 10 mg of NaCNBH3 was added. The reaction mixture was heated at 70° C. for 24 hours; an additional 10 mg of NaCNBH3 was added; and the reaction was heated at 70° C. for another 24 hours. After cooling to room temperature, the mixture was desalted with the spin column (3000 MWCO). Biotinylated heparin was collected, freeze dried, and used for chip preparation. Biotinylated heparin was immobilized to streptavidin chips according to the manufacturer's protocol. In brief, 20 μl of biotinylated heparin solution (0.1 mg/ml) in HBS-P running buffer (0.01 M N-2-hydroxyethylpiperazine-N′-2-ethanesulfonic acid, 0.15 M NaCl, 0.005% surfactant P20 [pH7.4]; BR100368, Cytiva) was injected over flow cell 2 of the streptavidin chip at a flow rate of 10 μl/min. The successful immobilization of heparin was confirmed by the observation of an approximately 200-resonance unit increase in the sensor chip. The control flow cell (flow cell 1) was prepared by 1-minute injection with saturated biotin. For the preparation of FGFR4 chips, Fc-FGFR4 protein (human ectodomain) was immobilized on research grade CMS chips according to the standard amine coupling protocol. Briefly, carboxymethyl groups on the CMS chip surface were first activated using an injection pulse of […] of an equimolar mix of N-ethyl-N-(dimethylaminopropyl) carbodiimide and N-hydroxysuccinimide (final concentration 0.05 M, mixed immediately before injection). After activation, FGFR4 was diluted to […] in 100 mM sodium acetate (pH 5.5) buffer and injected over the activated biosensor surface. […] The response was monitored as a function of time (sensorgram) at 25° C.

[4] = system: male BALB/c mice; experiment: Serial FGF23 and heparin injections in mice, echocardiography and heart weight; format: in vivo, mouse; settings: heparin 125 USP/kg and/or FGF23 40 μg/kg
Experimental: FGF23 injections were administered following a similar protocol established previously. 13,72,73 Briefly, 12-week-old male BALB/c mice (The Jackson Laboratory) underwent tail vein injections. The day before the experiment, mice underwent echocardiographic analysis, as described below. Mice were anesthetized in 2.5% isoflurane and placed on a heat pad. Each group consisted of 5 mice, and different groups were injected with isotonic saline, heparin, FGF23, or FGF23 and heparin combined. Per injection, 40 μg/kg of FGF23 and 125, 62.5, or 12.5 USP/kg of heparin dissolved in 200 μl of isotonic saline were used, with 8 hours were used between injections for a total of 5 consecutive days. All injections were performed via the lateral tail vein. On the morning of the sixth day, 16 hours after the final tail vein injection, animals underwent echocardiographic analysis and were killed. Middle sections of hearts were cut along the short axis and stored overnight in 4% phosphate-buffered formaldehyde solution. Sections were sent to IDEXX Laboratories for embedding, hematoxylin and eosin (H&E) staining, and sectioning. Sections for wheat germ agglutinin (WGA) labeling were not stained by IDEXX Laboratories.
Echocardiographic analysis was performed on day 6 of the experiment for FGF23-injected mice by using the Vevo 770 or Vevo 3100 imaging system (FUJIFILM VisualSonics). Animals were anesthetized with 1.5% isoflurane, and normal body temperature was maintained using a rectal probe for temperature monitoring. For analysis, both B- and M-mode images were obtained in the short- and long-axis views. Correct positioning of the transducer was ensured using B-mode imaging in the long-axis view before switching to the short-axis view. Image analysis was performed using Vevo 770 Workstation and Vevo LAB software (FUJIFILM VisualSonics).

B1: sKL: recombinant soluble α-klotho ectodomain, mouse aa 35-982 and human aa 34-981, FLAG- or Strep/His-tagged, purified from HEK293 cells (protein)
chain: EPGDGAQTWARFSRPPAPEAAGLFQGTFPDGFLWAVGSAAYQTEGGWQQHGKGASIWDTFTHHPLAPPGDSRNASLPLGAPSPLQPATGDVASDSYNNVFRDTEALRELGVTHYRFSISWARVLPNGSAGVPNREGLRYYRRLLERLRELGVQPVVTLYHWDLPQRLQDAYGGWANRALADHFRDYAELCFRHFGGQVKYWITIDNPYVVAWHGYATGRLAPGIRGSPRLGYLVAHNLLLAHAKVWHLYNTSFRPTQGGQVSIALSSHWINPRRMTDHSIKECQKSLDFVLGWFAKPVFIDGDYPESMKNNLSSILPDFTESEKKFIKGTADFFALCFGPTLSFQLLDPHMKFRQLESPNLRQLLSWIDLEFNHPQIFIVENGWFVSGTTKRDDAKYMYYLKKFIMETLKAIKLDGVDVIGYTAWSLMDGFEWHRGYSIRRGLFYVDFLSQDKMLLPKSSALFYQKLIEKNGFPPLPENQPLEGTFPCDFAWGVVDNYIQVDTTLSQFTDLNVYLWDVHHSKRLIKVDGVVTKKRKSYCVDFAAIQPQIALLQEMHVTHFRFSLDWALILPLGNQSQVNHTILQYYRCMASELVRVNITPVVALWQPMAPNQGLPRLLARQGAWENPYTALAFAEYARLCFQELGHHVKLWITMNEPYTRNMTYSAGHNLLKAHALAWHVYNEKFRHAQNGKISIALQADWIEPACPFSQKDKEVAERVLEFDIGWLAEPIFGSGDYPWVMRDWLNQRNNFLLPYFTEDEKKLIQGTFDFLALSHYTTILVDSEKEDPIKYNDYLEVQEMTDITWLNSPSQVAVVPWGLRKVLNWLKFKYGDLPMYIISNGIDDGLHAEDDQLRVYYMQNYINEALKAHILDGINLCGYFAYSFNDRTAPRFGLYRYAADQFEPKASMKHYRKIIDSNGFPGPETLERFCPEEFTVCTECSFFHTRKS
modifications: left off: small tags and cut ends
notes: recombinant soluble α-klotho ectodomain, mouse aa 35-982 and human aa 34-981, FLAG- or Strep/His-tagged, purified from HEK293 cells
FGF23-induced calcium mishandling, altered contractility, proarrhythmic calcium release [1]: can be blocked
development of ventricular arrhythmias [2]: protects

Kd [3]: 0.32 µM
ka ([3]; 25° C.): 1.2 × 10^3 1/MS
kd ([3]; 25° C.): 0.04 1/S
B2: FGF23: recombinant fibroblast growth factor 23 protein from R&D Systems (protein)
chain: YPDTSPLLGSNWGSLTHLYTATARTSYHLQIHRDGHVDGTPHQTIYSALMITSEDAGSVVITGAMTRRFLCMDLHGNIFGSLHFSPENCKFRQWTLENGYDVYLSQKHHYLVSLGRAKRIFQPGTNPPPFSQFLARRNEVPLLHFYTVRPRRHTRSAEDPPERDPLNVLKPRPRATPVPVSCSRELPSAEEGGPAASDPLGVLRRGRGDARGGAGGADRCRPFPRFV
Endocardial % EF [4]: 61.57 ± 3.48%
Endocardial % FAC [4]: 51.38 ± 2.02%
Endocardial Area; s [4]: 4.88 ± 0.34 mm²
Endocardial major; d [4]: 7.94 ± 0.09 mm
Epicardial Area: s [4]: 19.4 ± 0.46 mm²
Epicardial Area; d [4]: 23.1 ± 0.45 mm²
Heart rate [4]: 452.70 ± 4.48 BPM
LV Mass; d [4]: 122.10 ± 3.05 mg
T; d [4]: 0.94 ± 0.02 mm
Endocardial Area; d ([4]; i.v. 2 times per day for 5 days, mean ± SEM): 9.93 ± 0.39 mm²
